Assay results from the DeepSol protein solubility set.

Assay: soluble on expression in E. coli; label from the status in PepcDB or PDB records

Row | Sequence | soluble on expression in E. coli
1 | MSLTVWKTLEKTNHSQSEILSQLIEESDAIVVGIGAGMSAADGFTYIGPRFEEAFPDFIAKYQLLDMLQASLYDFEDWEEYWAFQSRFVALNYLDQPVGQAYLDLKDILAKKEYHIITTNADNAFAVADYNLEKVFHIQGEYGLWQCSQHCHQQTYRNDQAIRQMIAQQKDMKIPSNLIPKCPKCDQPFEINKRNEEKGMVEDADFHAQRQRYENFLSQHQNDKVLYLEIGVGHTTPQFIKHPFWRFVSLNENSLFVTLNHKHYRIPQKIRSRSVQLTQHIAELIAEAKKEIIGEGHHHHHH | soluble
2 | GPGSDGVWLEELEMEPSQYLPDLKEDELLKTPAVMVNLNRPMPEVLQELSKHPVRTRLSLTGTIIVARDSAHARMREMLEAGKPLPQYMKEHPVYYAGPAKQPDGLPSGSFGPTTAGRMDPFVDLFQSHGGSMVMLAKGNRSKQVTKACHKYGGFYLGSIGGPAAVLAQNAIKKVECLDMKDLGMEAVWRIEVENFPAFIVVDDKGNDFFEQL | soluble
3 | GSHMASMTGGQQMGRGSMKFSFELAVNTKKEDAWTYYSQVNQWFVWEGDLEQISLEGEFTTGQKGKMKMEDMPELAFTLVEVRENQCFSDLTATPFGNVLFEHEILENPDGTISLRHSVSLTDSDTTEEALAFLKQIFADVPESVGKLKQILETV | soluble
4 | RIRKEPPVYAAGSLEEQWYLEIVDKGSVSCPTCQAVGRKTIEGLKKHMENCKQEMFTCHHCGKQLRSLAGMKYHVMANHNSLP | soluble
5 | MGSDKIHHHHHHMAEEIPVYLFTGFMDSGKTSLIKDTIFENDFANGSKGLIIMCEDGDVEYDMDKLKAANIQVAEIDSEDEFAAAKLNELNMQYLPEQVFIEYNGTWGIDKIIEAELPKGWVIVQSLATVDSTTFDLYMNNMRAMMQEQVFASDVVIFNRTDDDTDRGHLRRTIKNINRKAQIVYERKDGTIDERPEELPFDINQDVIELSDADYAIWYMDAMENYKKYDGKVVKFLALVYNPDKLRKGVMVPGRFAMTCCIEDVTFIGFKCKYEDESSIPHKSWITITARVHVEFAREYKGKGPVLYPVSIEPAEKPQDELVYFS | not soluble
6 | VTAVPTDSAEKPAVADAGVRSVTRVIDLLELFDAAHPTRSLKELVEGTKLPKTTVVRLVATMCARSVLTSRADGSYSLGPEMLRWVRLAGRTWAPPEEVVDIMRQLSADTGETVNLYIRQGLSRVVVAQCESTATVRSVIPLGVPYPLWAGAAGKILLLAAPELIDDVAADSPHGPEFADQLREKVEDGRERGYQLVHGERELGSSGLSFPLVDSHGTVVAALTLGGPTGRFTEDRTPHYIECTRAAAEEISAIGLPGLD | soluble
7 | MNNQKQQKPTLSGQRFKTRKRDEKERFDPTQFQDCIIQGLTETGTDLEAVAKFLDASGAKLDYRRYAETLFDILVAGGMLAPGGTLADDMMRTDVCVFAAQEDLETMQAFAQVFNKLIRRYKYLEKGFEDEVKKLLLFLKGFSESERNKLAMLTGVLLANGTLNASILNSLYNENLVKEGVSAAFAVKLFKSWINEKDINAVAASLRKVSMDNRLMELFPANKQSVEHFTKYFTEAGLKELSEYVRNQQTIGARKELQKELQEQMSRGDPFKDIILYVKEEMKKNNIPEPVVIGIVWSSVMSTVEWNKKEELVAEQAIKHLKQYSPLLAAFTTQGQSELTLLLKIQEYCYDNIHFMKAFQKIVVLFYKAEVLSEEPILKWYKDAHVAKGKSVFLEQMKKFVEWLKNAEEESESEAEEGD | soluble
8 | SLRLTQGLFRFPLAGLLCLSTAAFAESQLSVRVTPANAALKANIEAYVGSLGERDEAALQRFRRNAEAQAEKAAQALGYFQAQIDSEVKDGKPPKLTLKVVPGEPVRLRQVNIQVLGEAASLESFRLPSGKQLKPGAKLNQGVYEDAKRLIQNQASRYGFFQGRFSTQRLSIDPRAGIADIDLVYDSGQRYTFGKVSFDGDSIIEEELLRRMVPFKAGQPYDSELIAELNQNLQSSGYFEGVRVDAAPTQAQADGARQAIPVAVRLEARKPRTMGVGLGFSTDVGARARFNWTRHWVNAEGHSLGFESEISAPRQNVGAWYEIPLDPPLTDKLRFTSGYQFEDLVDTESKLLTLGGEWHSKRPDGWQRVVSLNWMREEYKLGDDSGLSSFLMPGIGYSLLETDNKVDPSHGYRLQFNVKGAKEGLLADADVLHVDAMAKGLTSFAGGHRLLGRLQVGGIATNDYKSIPPSLRFFAGGDQSVRGYDYRTLSPENSDGDKIGGRYMIAGSVEYQYPLAERWRLATFVDQGNAFNSLDFPSIKTGVGFGVRWVSPVGPLRLDLAHALDDDGGFRLHFSMGPEL | soluble
9 | MERAESSSTEPAKAIKPIDRKSVHQICSGQVVLSLSTAVKELVENSLDAGATNIDLKLKDYGVDLIEVSDNGCGVEEENFEGLTLKHHTSKIQEFADLTQVETFGFRGEALSSLCALSDVTISTCHASAKVGTRLMFDHNGKIIQKTPYPRPRGTTVSVQQLFSTLPVRHKEFQRNIKKEYAKMVQVLHAYCIISAGIRVSCTNQLGQGKRQPVVCTGGSPSIKENIGSVFGQKQLQSLIPFVQLPPSDSVCEEYGLSCSDALHNLFYISGFISQCTHGVGRSSTDRQFFFINRRPCDPAKVCRLVNEVYHMYNRHQYPFVVLNISVDSECVDINVTPDKRQILLQEEKLLLAVLKTSLIGMFDS | soluble
10 | SNAMSFIAIIPARYASTRLPGKPLADIAGKPMVVHVMERALASGADRVIVATDHPDVVKAVEAAGGEVCLTRADHQSGTERLAEVIEHYGFADDDIIVNVQGDEPLVPPVIIRQVADNLAACSAGMATLAVPIASSEEAFNPNAVKVVMDAQGYALYFSRATIPWERERFAQSKETIGDCFLRHIGIYAYRAGFIRRYVNWAPSQLEQIELLEQLRVLWYGEKIHVAVAKAVPAVGVDTQSDLDRVRAIMLNQ | soluble
11 | MDLEMMLDEDYKEGICLINFSQIALSTALVNFPDKEKINLSMVRHLILNSIKFNVKKAKTLGYTKIVLCIDNAKSGYWRRDFAYYYKKNRGKAREESTWDWEGYFESSHKVIDELKAYMPYIVMDIDKYEADDHIAVLVKKFSLEGHKILIISSDGDFTQLHKYPNVKQWSPMHKKWVKIKSGSAEIDCMTKILKGDKKDNVASVKVRSDFWFTRVEGERTPSMKTSIVEAIANDREQAKVLLTESEYNRYKENLVLIDFDYIPDNIASNIVNYYNSYKLPPRGKIYSYFVKAGLSKLTNSINEF | soluble
12 | MSLEIKNVSKQIGDRKILDNISLTIDKGSLVVLIGSSGCGKTTTLKLINKLITPTSGEIFINGKSLAKENPIELRRNIGYVIQNNGLFPHLTIKENIELIPRLKKGKDVEKIEKTTLDLLNMVGLDPEIYLNKYPSELSGGQQQRVGFARAFATDAEIILMDEPFSALDPITRTSLQEELFNIQEELKKTIIFVTHDMDEALKIADKICIMNGGKIAQYDTPENILRNPANDFVRDFIGSDRVWNNPDFIKAKDIMIKNPVSVKGARTILQGIEIMRSNKVDSLLVIDKENVLKGIVTFKDIKITNEKSRALSEIMSENPLRVNEDDSLVDILTVMNENSVGFIPVVNSEEKLVGLITRSSLLSILSDQFLDMEVNIFEEGHHHHHH | soluble
13 | DAQNYFQATEIRTMIALLQLIDNPYQDIPLAAVLRSPIVGLKENELVLIRLANKETSYYEAFLTFNQKMEPTMEEAVVQEKTIRFAESLEKWREQARRNQISNLLWTIYRETAYLDYVGGLPVGKQRQANLYALVDRAAAYEKTTFRGLFQFVRFIEKMQEKDKDLAEPVVLSEENAVRV | not soluble
14 | MADEEDPCGGGKKNPRKRCQPDVDPEEDSEPDLDGPQPPFRGRSSTVTDAVRQTAMEFRKRARSDEFRPAQQPEQSVVAVKPPTTSAPVTPFPANLPVSEQLEDLSLLPGVRRVRPLPRSRYPVANDPFDKFSAYSGPGSSQQAVPRTISKISEESGSGSGSGSGNDSSGSSGPTRMSGQVPSTSGPPPPRPPPAGHQNPFLGNQPSTSNTSEPSTSTQGVSPSRTSKISKKKAHQAGLHSKGSSEDSTDSGESKPSSKQPPKKSPKSNKNDPNAPGPSRRRDDDDDGVQGGSSEGSSESL | soluble
15 | MEFIVCNGCGCSPSKRQFFITACSHVFCETCRTTPTADFCHLCKIPTKTLKMDASLPKNVKKMFGDVGVMSTDIHKRLARVIGFQKIQKSIQLKMENKKSVMRKEQTKKVEKKTEEMHCQLSKLTSFEENNRKKLEDIERENEKLRNLISALELKVASSRDIDDDEFFMQGTPTSSNPSVAGSDVDNDELLDYDLLGLRNRSDSSSSNCSSQSNRGGSLF | not soluble
16 | KRYIPSVNDFVIGVIIGTFSDSYKVSLQNFSSSVSLSYMAFPNASKKNRPTLQVGDLVYARVCTAEKELEAEIECFDSTTGRDAGFGILEDGMIIDVNLNFARQLLFNNDFPLLKVLAAHTKFEVAIGLNGKIWVKCEELSNTLACYRTIMECCQKNDTAAFKDIAKRQFKEILT | soluble
17 | DNPLESPPPEIVKQGKEAVRQYFQSIEEARSKGEALVHLQEIKVHLIGDGMAGKTSLLKQLIGETFDPKESQTHGLNVVTKQAPNIKGLENDDELKECLFHFWDFGGQEIMHASHQFFMTRSSVYMLLLDSRTDSNKHYWLRHIEKYGGKSPVIVVMNKIDENPSYNIEQKKINERFPAIENRFHRISCKNGDGVESIAKSLKSAVLHPDSIYGTPLAPSWIKVKEKLVEATTAQRYLNRTEVEKICNDSGITDPGERKTLLGYLNNLGIVLYFEALDLSEIYVLDPHWVTIGVYRIINSSKTKNGHLNTSALGYILNEEQIRCDEYDPAKNNKFTYTLLEQRYLLDIMKQFELCYDEGKGLFIIPSNLPTQIDNEPEITEGEPLRFIMKYDYLPSTIIPRLMIAMQHQILDRMQWRYGMVLKSQDHEGALAKVVAETKDSTITIAIQGEPRCKREYLSIIWYEIKKINANFTNLDVKEFIPLPGHPDELVEYKELLGLEKMGRDRYVSGKLEKVFSVSKMLDSVISKEERNKER | soluble
18 | GPGSMFFLTRFKLGMADVTAAIGSGKCGEVLRKLNEKKAVREREENIDYRRALCFLANSQDVFHARQALLEELRHFPNNTAARTLLLEVNETVRPLLMPPKELLKSEPLFGLLCDALLDHTMLTWTRLYSLYRLSKEVCSKEGEGGALMECGVSGGGSVVLLAVVAAHYSKKPRKIYALDTFSGMPEPTTHDNLEEDGNLKPAESTSWGSGTCSATVENVRQLAKNFDVEEGLVVIPGLFHETMPKTLREISDEGISMLHVDADWYESTRCALELAWPMVKQGGMVQVDDYHYWLGCRKAVDEFAQREESEHRPLPILQNVDGNAVYFTKP | not soluble
19 | MDVEPIFCAEQIVIPHNLADILKAYTKEVIRRQPTDLIAFSAKYFTNLANVASGVSNSSAPAKEQLRQVYTRGGSGGATLTESQVTGLCQQAGIADAVVAKVMEVGAFTPAAVDLSKFVFLCLAMSCEDFNRVCMGVFDVFSDNGSLPAQDLLTLIAHLGPDMDPEVTPAFLDAVAAELPAGGGAVTYMELCEAPSLKPKLGLS | not soluble
20 | MSLKITNVEAVALDVPIMVRHRKDPFVRQCNLVRIDTDSGISGYGYTSPGEWHSTAAKVVNDMFRDVLIGQNPCKINSVISSLSTRFNRHRATGAWASAVSMVDIGLWDLLGKLYGVPTSVLLGGARTEVPVYITFGLAEYSTEELVDTVSHLVDEGHTRFKMIVGGLRSRPITREESLRPGGSHWFQGFTEDLLLNDVKRVAAVREAIGPDKGLMVDGNGAFPLGEAKRLAQNLEPFNLIWFEEPVLGNDPDLLQRLRDQTTVPIAAGQNIGSLAAHRTLIESKSYDICQLNVTHCGGYSEALKIAHLAEAHNMPIATGGAQPHHNMHFHAGVQNGGLVEFHWLSWKVGEALFVDPPAPRNGFVSLTDEPGLGLEVRPDAIEKFRVEGHHHHHH | soluble
